We go through 20 molecules from patent US20220040297A1 (Chugai, published 2022).

Substitutions are numbered along the chain they refer to. Numbers in names are those of the source.

The chains are these.
B1: CE115HA000 N76S one-arm antibody (antibody, human IgG1, kappa, L234A L235A, N297A, name in Kabat numbering)
heavy: QVQLVESGGGVVQPGRSLRLSCAASGFTFSNAWMHWVRQAPGKGLEWVAQIKAKSNNYATYYAESVKGRFTISRDDSKSSLYLQMNSLKTEDTAVYYCRYVHYGAYYGVDAWGQGTTVTVSSASTKGPSVFPLAPSSKSTSGGTAALGCLVKDYFPEPVTVSWNSGALTSGVHTFPAVLQSSGLYSLSSVVTVPSSSLGTQTYICNVNHKPSNTKVDKKVEPKSCDKTHTCPPCPAPEAAGGPSVFLFPPKPKDTLMISRTPEVTCVVVDVSHEDPEVKFNWYVDGVEVHNAKTKPREEQYASTYRVVSVLTVLHQDWLNGKEYKCKVSNKALPAPIEKTISKAKGQPREPQVYTLPPSRCELTKNQVSLSCAVKGFYPSDIAVEWESNGQPENNYKTTPPVLDSDGSFFLVSKLTVDKSRWQQGNVFSCSVMHEALHNHYTQKSLSLSPDYKDDDDK
chain: EPKSSDKTHTCPPCPAPELLGGPSVFLFPPKPKDTLMISRTPEVTCVVVDVSHEDPEVKFNWYVDGVEVHNAKTKPREEQYNSTYRVVSVLTVLHQDWLNGKEYKCKVSNKALPAPIEKTISKAKGQPREPQVCTLPPSRDELTKNQVSLWCLVKGFYPSDIAVEWESNGQPENNYKTTPPVLDSDGSFFLYSKLTVDKSRWQQGNVFSCSVMHEALHNRYTQKSLSLSP
light: DIVMTQSPLSLPVTPGEPASISCRSSQSLVHSNRNTYLHWYQQKPGQAPRLLIYKVSNRFSGVPDRFSGSGSGTDFTLKISRVEAEDVGVYYCGQGTQVPYTFGQGTKLEIKRTVAAPSVFIFPPSDEQLKSGTASVVCLLNNFYPREAKVQWKVDNALQSGNSQESVTEQDSKDSTYSLSSTLTLSKADYEKHKVYACEVTHQGLSSPVTKSFNRGEC
B2: CE115HA000 D101R one-arm antibody (antibody, human IgG1, kappa, L234A L235A, N297A, name in Kabat numbering)
heavy: B1 heavy with S79N, D110R
chain: B1 chain
light: B1 light
B3: CE115HA000 I51E one-arm antibody (antibody, human IgG1, kappa, L234A L235A, N297A, name in Kabat numbering)
heavy: B1 heavy with I51E, S79N
chain: B1 chain
light: B1 light
B4: CE115HA000 G98D one-arm antibody (antibody, human IgG1, kappa, L234A L235A, N297A, name in Kabat numbering)
heavy: B1 heavy with S79N, G104D
chain: B1 chain
light: B1 light
B5: CE115HA000 A102P one-arm antibody (antibody, human IgG1, kappa, L234A L235A, N297A, name in Kabat numbering)
heavy: B1 heavy with S79N, A111P
chain: B1 chain
light: B1 light
B6: CE115HA000 E61Q one-arm antibody (antibody, human IgG1, kappa, L234A L235A, N297A, name in Kabat numbering)
heavy: B1 heavy with E64Q, S79N
chain: B1 chain
light: B1 light
B7: CE115HA000 K52E one-arm antibody (antibody, human IgG1, kappa, L234A L235A, N297A, name in Kabat numbering)
heavy: B1 heavy with K52E, S79N
chain: B1 chain
light: B1 light
B8: NNS6f50 (antibody)
heavy: QVQLVESGGGLVQPGRSLRLSCAASGFTFSNAWMHWVRQAPGKGLEWVAQIKDKSNNYATYYAESVKGRFTISRDDSKNSIYLQMNSLKTEDTAVYYCRYVHYAALTGGLGYYGVDAWGQGTTVTVSSASTKGPSVFPLAPSSKSTSGGTAALGCLVKDYFPEPVTVSWNSGALTSGVHTFPAVLQSSGLYSLSSVVTVPSSSLGTQTYICNVNHKPSNTKVDKKVEPKSCDKTHTCPPCPAPEAAGGPSVFLFPPKPKDTLMISRTPEVTCVVVDVSHEDPEVKFNWYVDGVEVHNAKTKPREEQYASTYRVVSVLTVLHQDWLNGKEYKCKVSNKALPAPIEKTISKAKGQPREPQVYTLPPSRCELTKNQVSLSCAVKGFYPSDIAVEWESNGQPENNYKTTPPVLDSDGSFFLVSKLTVDKSRWQQGNVFSCSVMHEALHNHYTQKSLSLSPDYKDDDDK
chain: B1 chain
light: B1 light
notes: one-arm antibody
B9: NNS6f72 (antibody)
heavy: B8 heavy with L106E, T107G, G108I, G109W, L110W
chain: B1 chain
light: B1 light
notes: one-arm antibody
B10: NNS6f52 (antibody)
heavy: B8 heavy with L106Y, T107M, G108L
chain: B1 chain
light: B1 light
notes: one-arm antibody
B11: NNS6f68 (antibody)
heavy: B8 heavy with L106V, T107E, G108W, L110R, G111W
chain: B1 chain
light: B1 light
notes: one-arm antibody
B12: NNS6f59 (antibody)
heavy: B8 heavy with T107L, G108V, G109Q, L110E
chain: B1 chain
light: B1 light
notes: one-arm antibody
B13: NNS6f73 (antibody)
heavy: B8 heavy with L106W, T107V, G108V, L110V, G111R
chain: B1 chain
light: B1 light
notes: one-arm antibody
B14: NNS6f64 (antibody)
heavy: B8 heavy with T107V, G108S, G109L, L110T, G111V
chain: B1 chain
light: B1 light
notes: one-arm antibody
B15: NNS6f67 (antibody)
heavy: B8 heavy with L106G, T107L, G108L, G109R, L110A, G111A
chain: B1 chain
light: B1 light
notes: one-arm antibody
B16: NNS6f55 (antibody)
heavy: B8 heavy with L106A, T107G, G108R, G109W, G111A
chain: B1 chain
light: B1 light
notes: one-arm antibody
B17: NNS6f56 (antibody)
heavy: B8 heavy with L106R, T107E, G108A, G109T, L110R, G111W
chain: B1 chain
light: B1 light
notes: one-arm antibody
B18: NNS6f71 (antibody)
heavy: B8 heavy with L106G, T107W, G108V, G109L, L110G, G111S
chain: B1 chain
light: B1 light
notes: one-arm antibody
B19: NNS6f58 (antibody)
heavy: B8 heavy with L106S, T107W, G108Q, G109V, L110S, G111R
chain: B1 chain
light: B1 light
notes: one-arm antibody
B20: NNS6f62 (antibody)
heavy: B8 heavy with L106N, T107G, G109T, L110R, G111H
chain: B1 chain
light: B1 light
notes: one-arm antibody

For one experiment, the target named is CD3ε homodimer protein (human, UniProt P07766 23-126, limits assumed). Kind of experiment: SPR Biacore T200, CD3e homodimer on CM4 chip, antibody as analyte, 25 C. (In SPR one partner is held on a chip, and binding of the other changes the refractive index at the surface.)
Target sequence in this assay (P07766 23-126 limits assumed): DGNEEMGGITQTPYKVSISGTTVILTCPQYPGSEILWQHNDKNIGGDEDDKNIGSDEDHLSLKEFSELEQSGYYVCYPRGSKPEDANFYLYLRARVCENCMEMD
Procedure: An appropriate amount of CD3ε homodimer protein was immobilized onto Sensor chip CM4 (GE Healthcare Japan Corp.) by the amine coupling method. Then, the antibody having an appropriate concentration was injected thereto as an analyte and allowed to interact with the CD3ε homodimer protein on the sensor chip. Then, the sensor chip was regenerated by the injection of 10 mmol/L glycine-HCl (pH 1.5). The assay was conducted at 25° C., and HBS-EP+ (GE Healthcare Japan Corp.) was used as a running buffer. […] Each parameter was calculated using Biacore T200 Evaluation Software (GE Healthcare Japan Corp.).
Specifically, when the amount of the antibody comprising CE115HA000 bound was defined as X and the amount of the H chain one-amino acid altered form bound was defined as Y, a value of Z (ratio of amounts bound)=Y/X was used.
For B1, the “KD ratio (KD of CE115HA000/KD of altered form)” value (shortened to “KD ratio”) worked out at 0.34.

As for B2, the “KD ratio” value worked out at 5.66.

For the molecule B3, the “KD ratio” value turned out to be 0.84.

Turning to B4, the “KD ratio” value stood at 2.35.

For the molecule B5, the “KD ratio” value was found to be 3.61.

B6: the “KD ratio” value was found to be 0.85.

Turning to B7, the “KD ratio” value turned out to be 19.8.

A further experiment concerns the target T1, CD3ε homodimer protein (human, UniProt P07766 23-126, limits assumed).
T1 construct: also called human CD3ε homodimer protein; CD3e homodimer
Kind of experiment: SPR (Biacore T200, 25°C); CD3ε homodimer immobilized on CM4, one-arm antibody as analyte.
T1 sequence (P07766 23-126 limits assumed): as above
For B8, the affinity, expressed as Kd, was 71 nM. That is a double-digit nanomolar value.

With B9, the Kd (usually the equilibrium constant for the complex coming apart) came out at 150 nM.

B10 had a dissociation constant (Kd) of 52 nM. This Kd lies about 2.9-fold lower than the previous one.

Molecule B11 registered a Kd of 45 nM.

In turn, B12 displayed a Kd of 200 nM.

As to B13, binding was characterised by a dissociation constant (Kd) of 26 nM.

The molecule B14 yielded a Kd of 78 nM.

The molecule B15 came in with an equilibrium dissociation constant (Kd) of 36 nM. Compared with the last molecule, the Kd is about 2.2-fold lower.

As to B16, binding was characterised by a dissociation constant (Kd) of 31 nM.

B17: the affinity, expressed as Kd, was 21 nM.

On to B18, for which the Kd was 51 nM.

For the molecule B19, the dissociation constant Kd is 44 nM.

Turning to B20, the dissociation constant (Kd) was found to be 61 nM.
